# Where “and” joins values, the source holds several entries; their conditions need not be identical. Equal values may be shown once.
# T1: MBP-Dbp2 1-52 (Saccharomyces cerevisiae, UniProt P24783 1-52)
# T1 sequence: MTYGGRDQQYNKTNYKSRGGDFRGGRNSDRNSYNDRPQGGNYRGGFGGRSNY
# T2: MBP-Dbp2 497-546 (Saccharomyces cerevisiae, UniProt P24783 497-546)
# T2 chain: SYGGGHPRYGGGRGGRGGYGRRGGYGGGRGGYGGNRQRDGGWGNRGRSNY
# Experiments:
# [1] = target: T3, Dbp2 (full-length, Dbp2^1-546) (Saccharomyces cerevisiae, UniProt P24783, C168A/C206A/C219A); assay type: binding; settings: labelled protein immobilised via C-terminal His-tag antibody; no RNA; MgCl2 2 mM, pH 7.5
# T3 construct: full-length 1-546; E. coli C2566H; His6-MBP tag cleaved with TEV, SP ion exchange; the smFRET mutant C141/C373 carries a C-terminal His6 tag
# [2] = target: T4, Dbp2 (full-length, Dbp2^1-546) (Saccharomyces cerevisiae, UniProt P24783); assay: coupled spectrophotometric ATPase assay; assay type: biochemical; settings: RNA-dependent: ssRNA R-S22 or RNA/DNA duplex R/D-D16; MgCl2 2 mM, ATP 1.5 mM, pH 7.5, 24 °C; turnover only
# T4 construct: full-length 1-546; E. coli C2566H; His6-MBP tag cleaved with TEV, SP ion exchange; the smFRET mutant C141/C373 carries a C-terminal His6 tag
# [3] = target: T5, Dbp2 (full-length, Dbp2^1-546) (Saccharomyces cerevisiae, UniProt P24783, R495A/R496A); assay: ATPase activity assay kit (free phosphate, […] nm); assay type: biochemical; settings: 16 bp RNA/DNA duplex 0.75 μM; MgCl2 2 mM, ATP 1.5 mM, pH 7.5, 24 °C; turnover only
# T5 construct: full-length 1-546; E. coli C2566H; His6-MBP tag cleaved with TEV, SP ion exchange; the smFRET mutant C141/C373 carries a C-terminal His6 tag
# Dbp2 WT = Dbp2 WT (Saccharomyces cerevisiae, UniProt P24783 1-546); assay: fluorescence anisotropy; Anisotropy: 25 mM Tris-HCl pH 7.5, 20 mM NaCl/30 mM KCl, 2 mM MgCl2, 1 mM DTT, 5 nM labelled nucleic acid, 25 C, 5 min; EMSA: 25 mM Tris-HCl pH 7.5, 30 mM KCl; settings: protein: recombinant, tags: His6-MBP removed by TEV
# Dbp2 53-546 = Dbp2 53-546 (Saccharomyces cerevisiae, UniProt P24783 53-546); assay: as above; settings: protein: recombinant; tags: His6-MBP removed by TEV; label: 3' FAM; G4
# MBP-Dbp2 1-52 = target: T1, MBP-Dbp2 1-52; assay: as above; settings: protein: recombinant; tags: MBP fusion; label: 3' FAM; G4
# MBP-Dbp2 497-546 = target: T2, MBP-Dbp2 497-546; assay: as above; settings: protein: recombinant; tags: MBP fusion; label: 3' FAM; G4
# Dbp2 53-496 = Dbp2 53-496 (Saccharomyces cerevisiae, UniProt P24783 53-496); assay: as above; settings: protein: recombinant, tags: His6-MBP removed by TEV, label: 3' FAM
# Dbp2 1-530 = Dbp2 1-530 (Saccharomyces cerevisiae, UniProt P24783 1-530); assay: as above; settings: protein: recombinant, tags: His6-MBP removed by TEV, label: 3' FAM
# Dbp2 1-524 = Dbp2 1-524 (Saccharomyces cerevisiae, UniProt P24783 1-524); assay: as above; settings: protein: recombinant, tags: His6-MBP removed by TEV, label: 3' FAM
# Dbp2 118-466 = Dbp2 118-466 (Saccharomyces cerevisiae, UniProt P24783 118-466); assay: as above; settings: protein: recombinant, label: 3' FAM
# Dbp2 1-514 = Dbp2 1-514 (Saccharomyces cerevisiae, UniProt P24783 1-514); assay: as above; settings: protein: recombinant, tags: His6-MBP removed by TEV, label: 3' FAM
# [4] = label: 3' FAM on DNA strand, blunt
# Sequence of Dbp2 WT (P24783 whole entry): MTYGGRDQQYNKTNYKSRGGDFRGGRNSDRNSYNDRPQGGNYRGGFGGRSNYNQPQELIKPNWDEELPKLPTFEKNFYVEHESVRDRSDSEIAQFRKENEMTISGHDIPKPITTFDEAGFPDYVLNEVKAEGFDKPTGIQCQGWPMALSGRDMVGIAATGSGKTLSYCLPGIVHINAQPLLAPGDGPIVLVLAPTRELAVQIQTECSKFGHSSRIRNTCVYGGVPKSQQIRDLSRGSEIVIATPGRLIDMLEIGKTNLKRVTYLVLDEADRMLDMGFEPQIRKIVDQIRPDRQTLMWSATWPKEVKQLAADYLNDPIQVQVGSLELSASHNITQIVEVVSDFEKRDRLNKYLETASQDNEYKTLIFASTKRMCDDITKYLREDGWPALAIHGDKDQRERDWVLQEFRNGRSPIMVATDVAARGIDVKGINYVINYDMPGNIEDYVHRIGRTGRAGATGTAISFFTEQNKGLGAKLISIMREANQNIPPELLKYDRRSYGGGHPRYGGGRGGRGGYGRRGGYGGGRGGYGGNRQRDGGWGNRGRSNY
# Sequence of Dbp2 53-496 (P24783 53-496): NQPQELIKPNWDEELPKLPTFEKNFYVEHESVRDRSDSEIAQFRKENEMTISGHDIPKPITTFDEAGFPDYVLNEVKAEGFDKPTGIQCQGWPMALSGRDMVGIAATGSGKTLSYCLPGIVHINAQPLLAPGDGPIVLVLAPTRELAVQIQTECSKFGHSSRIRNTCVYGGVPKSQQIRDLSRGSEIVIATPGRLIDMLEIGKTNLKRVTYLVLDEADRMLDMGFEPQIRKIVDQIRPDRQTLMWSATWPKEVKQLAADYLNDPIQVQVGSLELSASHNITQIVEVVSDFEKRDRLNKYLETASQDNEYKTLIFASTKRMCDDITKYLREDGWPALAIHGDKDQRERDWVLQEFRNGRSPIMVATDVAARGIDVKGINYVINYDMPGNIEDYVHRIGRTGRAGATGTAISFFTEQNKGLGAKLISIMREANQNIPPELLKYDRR
# Sequence of Dbp2 1-514 (P24783 1-514): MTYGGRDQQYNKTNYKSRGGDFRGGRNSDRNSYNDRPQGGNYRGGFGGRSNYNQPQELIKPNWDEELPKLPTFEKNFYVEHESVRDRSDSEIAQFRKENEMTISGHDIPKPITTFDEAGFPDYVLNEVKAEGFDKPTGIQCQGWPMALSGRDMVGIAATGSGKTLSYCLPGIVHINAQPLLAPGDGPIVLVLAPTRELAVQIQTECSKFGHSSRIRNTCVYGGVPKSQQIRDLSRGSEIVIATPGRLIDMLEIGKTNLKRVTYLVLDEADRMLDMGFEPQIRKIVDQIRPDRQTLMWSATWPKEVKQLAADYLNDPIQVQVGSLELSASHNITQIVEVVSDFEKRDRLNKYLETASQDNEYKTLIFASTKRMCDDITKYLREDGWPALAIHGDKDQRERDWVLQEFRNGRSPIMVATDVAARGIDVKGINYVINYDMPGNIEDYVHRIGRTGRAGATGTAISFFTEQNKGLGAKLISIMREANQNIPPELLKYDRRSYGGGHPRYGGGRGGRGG
# Sequence of Dbp2 118-466 (P24783 118-466): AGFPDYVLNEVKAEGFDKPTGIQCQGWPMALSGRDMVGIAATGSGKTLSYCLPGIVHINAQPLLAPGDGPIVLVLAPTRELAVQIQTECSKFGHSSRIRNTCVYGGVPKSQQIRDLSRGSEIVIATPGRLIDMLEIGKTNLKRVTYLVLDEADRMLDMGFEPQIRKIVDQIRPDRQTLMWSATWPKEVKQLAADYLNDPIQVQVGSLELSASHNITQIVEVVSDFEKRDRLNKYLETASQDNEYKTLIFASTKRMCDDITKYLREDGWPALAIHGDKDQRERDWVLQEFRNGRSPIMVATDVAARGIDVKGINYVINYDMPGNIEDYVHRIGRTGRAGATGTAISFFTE
# Sequence of Dbp2 53-546 (P24783 53-546): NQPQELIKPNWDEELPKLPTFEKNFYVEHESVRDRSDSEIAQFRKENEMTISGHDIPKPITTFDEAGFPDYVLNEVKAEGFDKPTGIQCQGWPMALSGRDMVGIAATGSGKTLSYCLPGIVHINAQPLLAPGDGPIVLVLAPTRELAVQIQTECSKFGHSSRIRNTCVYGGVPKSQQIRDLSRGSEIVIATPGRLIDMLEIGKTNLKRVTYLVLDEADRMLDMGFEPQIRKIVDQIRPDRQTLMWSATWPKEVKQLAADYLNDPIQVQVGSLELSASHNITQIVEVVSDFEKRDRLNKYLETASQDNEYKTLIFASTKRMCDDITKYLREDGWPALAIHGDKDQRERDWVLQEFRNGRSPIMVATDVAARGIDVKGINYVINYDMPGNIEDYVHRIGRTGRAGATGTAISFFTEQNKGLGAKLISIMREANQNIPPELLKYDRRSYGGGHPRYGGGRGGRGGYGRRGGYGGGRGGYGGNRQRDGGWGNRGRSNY
# T3 sequence (P24783 whole entry C168A/C206A/C219A): as the sequence (P24783 whole entry) above, with C168A, C206A, C219A counted along it
# T5 sequence (P24783 whole entry R495A/R496A): as the sequence (P24783 whole entry) above, with R495A, R496A counted along it
molecule,measurement,setting,value
Nc1ncnc2c1ncn2[C@@H]1O[C@H](COP(=O)(O)OP(=O)(O)O)[C@@H](O)[C@H]1O [ADP],"single-molecule FRET, Cy3/Cy5 on C141 and C373",[1],The FRET distribution of Dbp2-ADP was similar to that of Dbp2-ADP·AlF4 except for a decrease
Nc1ncnc2c1ncn2[C@@H]1O[C@H](COP(=O)(O)OP(=O)(O)OP(=O)(O)O)[C@@H](O)[C@H]1O [ATP],coupled spectrophotometric ATPase assay,[2],The RNA-dependent ATPase activities of Dbp2 were measured using a coupled spectrophotometric ATPase assay
same,"ATPase activity assay kit (free phosphate, 620 nm)",[3],the R495A/R496A double mutant also showed increased ATPase activity in vitro
D-D12 (dsDNA) DNA 1: CGTCGAGCAGAG DNA 2: CTCTGCTCGACG,Kd,"Dbp2 WT; label: 3' FAM on strand 2, blunt",178 ± 6.2 nM
CUCUGCUCGACG (ssRNA) [R-S12],Kd,Dbp2 WT; label: 3' FAM,72.1 ± 5.09 nM
ACGGATGTCTAA (ssDNA) [D-S12],Kd,Dbp2 WT; label: 3' FAM,105 ± 1.9 nM
R/D-D16 (DNA:RNA) RNA: GAUCGUGACAUCCUUA DNA: TAAGGATGTCACGATC,Kd,Dbp2 WT; [4],40.6 ± 4.65 nM
R/D-D12 (DNA:RNA) RNA: CGUCGAGCAGAG DNA: CTCTGCTCGACG,Kd,Dbp2 WT; [4],73.9 ± 3.93 nM
GGGUUAGGGUUAGGGUUAGGG (structured_RNA) [R-G4Tel],Kd,Dbp2 53-546,18.8 ± 0.56 nM
same,Kd,MBP-Dbp2 1-52,26 ± 1.5 nM
same,Kd,MBP-Dbp2 497-546,36.3 ± 5.1 nM
same,binding result,Dbp2 53-496; G4,no binding
same,Kd,Dbp2 1-530; G4,19.2 ± 2.17 nM
same,Kd,"Dbp2 WT; label: 3' FAM, G4",12.2 nM and 12.7 nM
same,Kd,Dbp2 1-524; G4,27.9 ± 2.66 nM
same,binding result,Dbp2 118-466; G4,no binding
same,Kd,Dbp2 1-514; G4,63.5 ± 8.45 nM
UUUUUUUUUUCUCUGCUCGACG (ssRNA) [R-S22],binding result,Dbp2 53-496,no binding
same,Kd,Dbp2 1-530,33.7 ± 6.63 nM
same,Kd,Dbp2 WT; label: 3' FAM,15.8 ± 0.66 nM
same,Kd,Dbp2 1-524,38.8 ± 4.35 nM
same,binding result,Dbp2 118-466,no binding
same,Kd,Dbp2 1-514,214 ± 18.4 nM
